Experimental data from paper PMC3459857 (Molecular Biology of the Cell, 2012).
One block for each molecule: values may come before it.

How the values were obtained:
[1] = target: Capu-NT, the N-terminal half of Cappuccino (aa 1–466) (Drosophila) (UniProt Q24120)
[2] = target: Capu(1–321) (Drosophila) (UniProt Q24120)
[3] = target: Capu-tail–Alexa Fluor 488 (Drosophila); experiment: fluorescence polarisation
[4] = target: the molecule itself; experiment: AUC
[5] = target: the molecule itself; experiment: SEC-MALS
[6] = target: T1, Capu-CT, the C-terminal half of Cappuccino (aa 467–1059) (Drosophila, UniProt Q24120 467-1059); experiment: cell-based or functional assay
T1 sequence (looked up): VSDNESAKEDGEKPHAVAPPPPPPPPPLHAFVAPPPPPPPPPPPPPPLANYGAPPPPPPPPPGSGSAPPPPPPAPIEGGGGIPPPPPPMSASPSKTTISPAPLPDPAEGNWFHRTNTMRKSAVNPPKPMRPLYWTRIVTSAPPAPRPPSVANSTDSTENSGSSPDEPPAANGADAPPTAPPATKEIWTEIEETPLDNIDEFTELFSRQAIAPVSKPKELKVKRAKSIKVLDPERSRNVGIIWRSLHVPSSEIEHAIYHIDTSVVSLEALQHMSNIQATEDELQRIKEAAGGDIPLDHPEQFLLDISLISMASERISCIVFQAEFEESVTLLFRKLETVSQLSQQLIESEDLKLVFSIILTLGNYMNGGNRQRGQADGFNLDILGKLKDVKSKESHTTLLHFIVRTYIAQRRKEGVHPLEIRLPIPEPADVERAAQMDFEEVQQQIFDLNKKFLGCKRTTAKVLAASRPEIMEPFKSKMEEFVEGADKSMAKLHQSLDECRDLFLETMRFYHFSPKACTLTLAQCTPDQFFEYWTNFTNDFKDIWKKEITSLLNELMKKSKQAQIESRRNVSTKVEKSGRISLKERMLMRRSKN

B1: Capu-NT, the N-terminal half of Cappuccino (aa 1–466) (domain or fragment, Drosophila, UniProt Q24120 1-466, looked up)
chain: MALQLGKKLAQVLGSGAGSPLTPGTMEPCAAGSGSPLANGELFNVSKAKKVELQNLSSRFTAAVTQTPPGVTSSTPNESGVTGPAGPLGATTSSPSLETQSTVIISFKSSQTPVQSQTNSAASENVEDDTAPLPLPPPPPGFGTPTTPLLSSNVLKKVASFTVEKSSAGNNSSNPPNLCPTSDETTLLATPCSSSLTVATLPPEIAVGAAAGGVAGGAGSRRGSSYVPEKLSFAAYEKFEGQMLIKWLISTMQSNPKSSSGDANQELFNTLALQFCNNLKYVGVLKQISNEHLDCGFSPYEMYQWTHTEQPTTSLPLTPGKLDKVAAWPFSSTPSGIRALESASLASLGAGGVAGSLATIATASTASSDNQKTLQQILKKRLLNCTTLAEVHAVVNELLSSVDEPPRRPSKRCVNLTELLNASEATVYEYNKTGAEGCVKSFTDAETQTESEDCEGTCKCGQSSTK
Kd [3]: 0.3 µM | Kd [4]: 0.245 µM | stoichiometry N [4]: 2

B2: Capu(1–321) (domain or fragment, Drosophila, UniProt Q24120 1-321, looked up)
chain: MALQLGKKLAQVLGSGAGSPLTPGTMEPCAAGSGSPLANGELFNVSKAKKVELQNLSSRFTAAVTQTPPGVTSSTPNESGVTGPAGPLGATTSSPSLETQSTVIISFKSSQTPVQSQTNSAASENVEDDTAPLPLPPPPPGFGTPTTPLLSSNVLKKVASFTVEKSSAGNNSSNPPNLCPTSDETTLLATPCSSSLTVATLPPEIAVGAAAGGVAGGAGSRRGSSYVPEKLSFAAYEKFEGQMLIKWLISTMQSNPKSSSGDANQELFNTLALQFCNNLKYVGVLKQISNEHLDCGFSPYEMYQWTHTEQPTTSLPLTPGK
stoichiometry N [5]: 2 | Kd [3]: 0.3 µM

B3: Capu(1–222) (domain or fragment, Drosophila, UniProt Q24120 1-222, looked up)
chain: MALQLGKKLAQVLGSGAGSPLTPGTMEPCAAGSGSPLANGELFNVSKAKKVELQNLSSRFTAAVTQTPPGVTSSTPNESGVTGPAGPLGATTSSPSLETQSTVIISFKSSQTPVQSQTNSAASENVEDDTAPLPLPPPPPGFGTPTTPLLSSNVLKKVASFTVEKSSAGNNSSNPPNLCPTSDETTLLATPCSSSLTVATLPPEIAVGAAAGGVAGGAGSRR
inhibition activity in the pyrene-actin assay relative to Capu-NT, at 100 nM [6]: ~40% | Kd [3]: 4.8 µM

More lines, now with the values ahead:

Kd calculated from the pyrene-actin competition assay (Vinson analysis) [1]: 0.167 µM
Molecule: GST–Capu-tail (dimeric) (domain or fragment)

EC50 of relief of Capu(1–321) inhibition of Capu-CT in the pyrene-actin assay [2]: 3 µM
Molecule: Capu-tail (monomeric peptide cleaved from GST–Capu-tail)
